Data from PMC10747088, “Self-Penetrating Oligonucleotide Derivatives: Features of Self-Assembly and Interactions with Serum and Intracellular Proteins”.

B1: FAM-TZD17 (FAM-TZ17) (ssDNA)
DNA: AGTCTCGACTTGCTATT
modifications: triazinyl phosphoramidate with two dodecyl groups at the last internucleotide phosphate (T16*T17)
B2: FAM-TZD16 (FAM-TZ16) (ssDNA)
DNA: CTGACTATGAAGTATT
modifications: triazinyl phosphoramidate with two dodecyl groups at the last internucleotide phosphate (T15*T16)

Target: human serum albumin (HSA) (Homo sapiens, UniProt P02768 25-609)
Experiment: fluorescence titration (FAM); PBS; 10 uM oligomer; HSA Kd: 10 uM oligomer, PBS, 30 min, 25 C (Methods) or 37 C (Figure S7); HSA EMSA: TA/TAM buffer, 1 h, native 8% PAAG at 37 C; Ku/PARP1 EMSA: 50 mM Tris-HCl pH
Conditions: protein: commercial, label: 5'-FAM, single strand, micelles

Sequence of human serum albumin (HSA) (P02768 25-609): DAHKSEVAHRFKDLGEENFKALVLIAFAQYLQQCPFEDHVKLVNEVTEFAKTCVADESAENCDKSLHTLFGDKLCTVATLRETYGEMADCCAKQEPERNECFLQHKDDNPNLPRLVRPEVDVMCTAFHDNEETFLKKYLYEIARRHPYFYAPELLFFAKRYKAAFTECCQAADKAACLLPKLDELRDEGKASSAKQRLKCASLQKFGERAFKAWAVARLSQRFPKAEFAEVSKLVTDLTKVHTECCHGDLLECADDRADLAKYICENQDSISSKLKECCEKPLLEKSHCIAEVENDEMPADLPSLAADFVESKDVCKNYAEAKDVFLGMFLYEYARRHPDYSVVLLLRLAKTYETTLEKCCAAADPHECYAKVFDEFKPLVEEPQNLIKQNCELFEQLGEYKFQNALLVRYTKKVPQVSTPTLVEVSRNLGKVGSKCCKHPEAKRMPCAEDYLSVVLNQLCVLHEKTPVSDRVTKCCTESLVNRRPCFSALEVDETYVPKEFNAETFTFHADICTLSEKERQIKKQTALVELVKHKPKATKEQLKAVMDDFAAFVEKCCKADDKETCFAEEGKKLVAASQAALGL

Binder | Kd (can form weak hairpin or self-dimers) | Kd
B1 | 1200 ± 200 nM | 
B2 |  | 1500 ± 100 nM
